Data published in PMC11278340.

T1: murine CCL22 (Mus musculus, UniProt O88430 25-92)
T1 sequence: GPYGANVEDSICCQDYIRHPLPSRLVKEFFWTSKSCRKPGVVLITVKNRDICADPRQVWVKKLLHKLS

T2: murine CCL17 (Mus musculus, UniProt Q9WUZ6 24-93)
T2 sequence: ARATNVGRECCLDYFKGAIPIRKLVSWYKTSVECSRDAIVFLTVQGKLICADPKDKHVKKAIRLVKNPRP

T3: human CCL22 (Homo sapiens, UniProt O00626 25-93)
T3 sequence: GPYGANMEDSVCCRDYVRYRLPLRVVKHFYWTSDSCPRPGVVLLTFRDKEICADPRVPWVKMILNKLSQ

B1: AJ82 (ssDNA)
DNA: GCTGTGTGACTCCTGCAAGCTGTGGAGTCGTCGTTCGGGTTATGGGGGATGGGGTTGAGTGGCAGCTGTATCTTGTCTCC
B2: AJ102 (ssDNA)
DNA: GCTGTGTGACTCCTGCAATAGGCGAGTGTGGGTGGGTGGGCGTTCTCAGTGGTTCTCAGTAGCAGCTGTATCTTGTCTCC

Key:
[1] = target: T1, murine CCL22; test: flow cytometry on CCL22 beads
[2] = target: human CCL17 (Homo sapiens, UniProt Q92583 24-94); test: ELONA
human CCL17, sequence (Q92583 24-94): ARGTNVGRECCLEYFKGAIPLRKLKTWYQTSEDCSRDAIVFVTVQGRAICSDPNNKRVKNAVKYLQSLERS

[3] = target: T2, murine CCL17; test: ELONA
[4] = target: T3, human CCL22; test: ELONA
[5] = target: T1, murine CCL22; test: SPR

Row | Binder | Kd [1] [nM] | binding result [2] | binding result [3] | binding result [4] | Kd [5] [nM]
1 | B1 | 146 | no binding | no binding | no binding | 24.8
2 | TAGGCGAGTGTGGGTGGGTGGGCGTTCTC (ssDNA) [AJ102.29] | 63.6 |  |  |  | 
3 | B2 | 147 | no binding | no binding | no binding | 10.7
